Results reported in patent US20210085800A1 (IMMUNOGEN, published 2021).

B1: huMOV19-C442-D5 (antibody, IgG1, V domains shown)
VH: QVQLVQSGAEVVKPGASVKISCKASGYTFTGYFMNWVKQSPGQSLEWIGRIHPYDGDTFYNQKFQGKATLTVDKSSNTAHMELLSLTSEDFAVYYCTRYDGSRAMDYWGQGTTVTVSS
VL: DIVLTQSPLSLAVSLGQPAIISCKASQSVSFAGTSLMHWYHQKPGQQPRLLIYRASNLEAGVPDRFSGSGSKTDFTLTISPVEAEDAATYYCQQSREYPYTFGGGTKLEIKR
modifications: compound D5 linked through its maleimide to the thiol of the engineered Cys 442 (EU/OU numbering); average 2 mol D5/mol antibody
B2: huMOV19-D2 (antibody, V domains shown)
VH: B1 VH
VL: B1 VL
modifications: compound D2 linked to lysine residues (positions and chain not stated)
B3: huMOV19-C442-D4 (antibody, IgG1, V domains shown)
VH: B1 VH
VL: B1 VL
modifications: compound D4 linked through its maleimide to the thiol of the engineered Cys 442 (EU/OU numbering); average 2 mol D4/mol antibody
B4: huMOV19-sulfo-SPDB-D1 (antibody, V domains shown)
VH: B1 VH
VL: B1 VL
modifications: compound D1 linked through a sulfo-SPDB linker to lysine side chain amino groups (positions and chain not stated)
B5: huMOV19 antibody (unconjugated) (antibody, human IgG1, V domains shown)
VH: B1 VH
VL: B1 VL
notes: Human IgG1; also called humanized MOV19 antibody; M9346A; copies: 2 + 2

Columns and labels:
[1] = biological target: T1, folate receptor alpha (FRα) on the surface of KB and T47D cells (UniProt P15328 25-234, limits assumed); test: cell-based or functional assay
[2] = biological target: T1, folate receptor alpha (FRα) on the …; test: blocking of FRα on KB cells (2 µM) in a cytotoxicity assay
Experimental: The cell lines were cultured in culture medium as recommended by the cell supplier (ATCC or DSMZ). To each well of a flat bottom 96-well plate was added 1,000-2,000 cells in 100 μL of the culture medium. Conjugates were diluted into the culture medium using 3-fold dilution series and 100 μL were added per well. […] Control wells containing cells and the medium but lacking the conjugates, as well as wells containing medium only, were included in each assay plate. Assays were performed in triplicate for each data point. The plates were incubated at 37° C. in a humidified 6% CO₂ incubator for 5 to 6 days. Then the relative number of viable cells in each well was determined using either the Alamar Blue reagent according the manufacturer's protocol (Life Technologies) or the WST-8 based Cell Counting Kit-8 (Dojindo Molecular Technologies, Inc., Rockville, Md.). The apparent surviving fraction of cells in each well was calculated by first correcting for the medium background absorbance, and then dividing each value by the average of the values in the control wells (non-treated cells). The surviving fraction of cells was plotted against conjugate concentration in semi-log plots.

T1 sequence (P15328 25-234 limits assumed, stated change not applied): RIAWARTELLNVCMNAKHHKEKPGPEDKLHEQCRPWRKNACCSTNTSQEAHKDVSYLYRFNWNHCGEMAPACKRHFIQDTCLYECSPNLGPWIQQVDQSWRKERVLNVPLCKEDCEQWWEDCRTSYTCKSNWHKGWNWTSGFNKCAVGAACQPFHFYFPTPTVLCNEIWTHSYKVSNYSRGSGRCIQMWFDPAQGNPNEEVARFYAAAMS

Binder	fold loss of cytotoxicity when FRα is blocked by unconjugated huMOV19 [1] [fold]	binding result [2]
B1	100	
B2	100	
B3	100	
B4	100	
B5		binds
